Key:
[1] = target: T1, human GUCY2C-rCD4 fusion protein (Homo sapiens (human); Rattus norvegicus, biotinylated (site not given)); assay: ranking ELISA (DELFIA), 5 nM scFv on anti-FLAG, biotinylated antigen, streptavidin-Eu
T1 construct: GUCY2C conjugated/fused with CD4; also called Hu-GUCY2C-rCD4; human GUCY2C recombinant antigen
Procedure: (§1) More specifically, after coating an anti-FLAG antibody in a MaxiSorb plate and binding by adding scFvs obtained previously, the remaining scFvs were removed by a washing process. Here, a biotinylated human-GUCY2C-rCD4 protein was incubated and combined, and then the affinity to the antigen was measured by reading signals by DELFIA enhancement with color development through streptavidin-Europlum.

[2] = target: T1, human GUCY2C-rCD4 fusion protein; assay: ranking ELISA (DELFIA), 50 nM scFv on anti-FLAG, biotinylated antigen, streptavidin-Eu
Procedure: as §1

[3] = target: T2, monkey GUCY2C-rCD4 fusion protein (Macaca fascicularis (crab-eating …, limits assumed)); assay: ELISA (DELFIA), antigen on streptavidin plate, scFv culture solution, Eu-anti-tag Ab
T2 construct: Prepared by the same method as the human antigen; also called Cy-GUCY2C-rCD4; monkey GUCY2C recombinant antigen
T2 chain: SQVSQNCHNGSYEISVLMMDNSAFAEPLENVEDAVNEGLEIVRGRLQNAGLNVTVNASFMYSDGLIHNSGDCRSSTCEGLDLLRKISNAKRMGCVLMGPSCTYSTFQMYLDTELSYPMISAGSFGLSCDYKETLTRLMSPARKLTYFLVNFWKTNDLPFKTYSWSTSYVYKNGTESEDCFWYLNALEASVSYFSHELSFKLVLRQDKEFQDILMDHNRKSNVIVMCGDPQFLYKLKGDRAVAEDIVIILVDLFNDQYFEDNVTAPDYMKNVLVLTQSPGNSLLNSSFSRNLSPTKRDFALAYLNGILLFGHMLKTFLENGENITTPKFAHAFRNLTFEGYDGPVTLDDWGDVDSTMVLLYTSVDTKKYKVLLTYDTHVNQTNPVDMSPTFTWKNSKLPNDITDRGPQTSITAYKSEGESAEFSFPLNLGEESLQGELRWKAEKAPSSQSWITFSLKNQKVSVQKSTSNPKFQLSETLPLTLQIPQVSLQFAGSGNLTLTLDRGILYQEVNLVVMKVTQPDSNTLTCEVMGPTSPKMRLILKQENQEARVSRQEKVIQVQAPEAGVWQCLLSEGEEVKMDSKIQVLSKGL
Procedure: (§2) More specifically, GUCY2C-rCD4 fusion protein, in which the prepared human GUCY2C (SEQ ID NO: 112), monkey GUCY2C (SEQ ID NO: 114), and mouse GUCY2C (SEQ ID NO: 113) were fused, respectively, was bound to a place coated with streptavidin in a Nunc Maxisorp™96 well plate. After removing all the synthetic proteins not combined with washing buffer, the anti-GUCY2C scFV obtained in the culture solution was incubated in each well. After that, the affinity was measured by reading signals DELFIA enhanced using Eu-anti-tag Ab.

[4] = target: T1, human GUCY2C-rCD4 fusion protein; assay: as above
Procedure: as §2

[5] = target: T1, human GUCY2C-rCD4 fusion protein; assay: SPR (Sierra SPR-32), scFv on protein G, antigen 800-12.5 nM, 25 C
Procedure: Furthermore, the affinity to the GUCY2C antigen of the 18 kinds of scFvs produced in Example 1 was measured by SPR (Surface plasmon resonance) analysis.
SPR assay was performed with association time 2 min and dissociation time 10 min under the condition of 25 degrees of Celsius using MASS2 (Sierra SPR-32; Bruker). The data were analyzed with Software R3.

[6] = target: T3, GUCY2C on the cell surface (T84 colon carcinoma cells; HT29-GUCY2C cells) (human, UniProt P25092 24-1073); assay: flow cytometry, scFv(-Fc) at 10 ug/mL on GUCY2C-positive T84 cells, detected with IgG-Fc-PE Ab (FL2-H)
T3 construct: whole, on cells; also called GUCY2C expressing T84 cells; HT29 GCC cells
Procedure: (§3) Using cells naturally expressing GUCY2C, whether 18 kinds of scFvs produced in Example 1 could actually detect GUCY2C expression on the cell surface was confirmed. For this, a GUCY2C positive cancer cell, T84 colon carcinoma cell (ATCC® CCL248™) was used.
(§4) After separating the two cell lines using trypsin-EDTA, they were placed in FACS buffer (1×PBS+2% BSA). 10 ug/mL of each of the 18 kinds of scFvs and positive control group, 5F9 scFv was cultured with T84 and T-47D cells on ice for 1 hour. The scFv combined to cells was detected using 5 ug/mL IgG-Fc-PE Ab (BioLegend; 409304). The cells were cultured with ToPro®3 (live/dead stain) and then red with a flow cytometer.

[7] = target: T3, GUCY2C on the cell surface (T84 colon …); assay: flow cytometry on T84 cells, median MFI on live singlet cells (IgG-Fc-PE signal), scFv(-Fc) at 10 ug/mL
Procedure: as §3, §4

[8] = target: T1, human GUCY2C-rCD4 fusion protein; assay: ELISA (DELFIA), antigen on streptavidin plate, scFv culture solution, Eu-anti-tag Ab; binding ELISA, Hu-GUCY2C-rCD4 antigen: binds
Procedure: as §2

[9] = target: T1, human GUCY2C-rCD4 fusion protein; assay: ranking ELISA (DELFIA), 5 nM scFv on anti-FLAG, biotinylated antigen, streptavidin-Eu; affinity ranking ELISA, 5 nM: binds
Procedure: as §1

[10] = target: T1, human GUCY2C-rCD4 fusion protein; assay: ranking ELISA (DELFIA), 50 nM scFv on anti-FLAG, biotinylated antigen, streptavidin-Eu; affinity ranking ELISA, 50 nM: binds
Procedure: as §1

B1: scFv B01 (scFv)
scFv: EVQLVQPGAEVKKPGSSVKVSCKASGGTLSSYAISWVRQAPGQGLEWMGRIIPILGITNYAQKFQGRVTITADKSTSTAYMELSSLRSEDTAVYFCARDQRPASMDVWGQGTLVTVSSGGGGSGGGGSGGGASQSGLTQPASVSGSPGQSITISCTGTSSDVGGYNYVSWYQQHPGKAPKLMIYEVSNRPSGVSNRFSGSKSGNTASLTISGLQAEDEADYYCSTVTSLSTYVFGTGTKLTVL
notes: also called 2433_01_H07; H07
Affinity Ranking ELISA (5 nM) signal [1]: 26200 | Affinity Ranking ELISA (50 nM) signal [2]: 133000 | Binding ELISA signal [3]: 4490 | Binding ELISA signal [4]: 39400 | Kd [5]: 335 nM | binding result [6]: binds

B2: scFv C07 (positive control), 5F9 scFv (scFv)
scFv: EIVMTQSPATLSVSPGERATLSCRASQSVSRNLAWYQQKPGQAPRLLIYGASTRATGIPARFSGSGSGTEFTLTIGSLQSEDFAVYYCQQYKTWPRTFGQGTNVEIKASGGGGSGGGGSGGGGSGGGGSELQVQLQQWGAGLLKPSETLSLTCAVFGGSFSGYYWSWIRQPPGKGLEWIGEINHRGNTNDNPSLKSRVTISVDTSKNQFALKLSSVTAADTAVYYCARERGYTYGNFDHWGQGTLVTVSS
notes: also called 5F9 scFv-Fc
Affinity Ranking ELISA (5 nM) signal [1]: 133000 | Affinity Ranking ELISA (50 nM) signal [2]: 184000 | Binding ELISA signal [3]: 49200 | Binding ELISA signal [4]: 83900 | Kd [5]: 15 nM | binding result [6]: binds

B3: scFv B12 (scFv)
scFv: QVQLVESGGGLVKPGGSLRLSCAASGFTFSSYSMNWVRQAPGKGLEWVSVIYSGGSTHYADSVKGRFTISRHNSKNTLYLQMNSLRAEDTAVYYCARGAGTLNAFDIWGQGTTVTVSSGGGGSGGGGSGGGASQSGLTQPPSTSGSPGQSVTISCTGTSSDVGAYSYVSWYQQHPGKAPKLLIYAVTKRPSGVPDRFSGSKSGNTASLTVSGLQDEDEADYYCSSFAGGSTLVFGGGTKLTVL
notes: also called 2437_02_G10
Affinity Ranking ELISA (5 nM) signal [1]: 9590 | Affinity Ranking ELISA (50 nM) signal [2]: 77100 | Binding ELISA signal [3]: 22100 | Binding ELISA signal [4]: 30900 | Kd [5]: 4540 nM | binding result [6]: binds

B4: scFv B11 (scFv)
scFv: QVQLVESGAEVKKPGSSVKVSCKASGGTFSSYAISWVRQAPGQGLEWMGGIIPIFGTANYAQKFQGRVTITADESTSTAYMELSGLRSEDTAVYYCARGIQPLRYYGMDVWGQGTLVTVSSGGGGSGGGGSGGGASQSALTQPPSASGTPGQRVTISCSGSSSNIGSNYVYWYQQLPGTAPKLLIYRNNQRPSGVPDRFSGSKSGTSASLAISGLRSEDEADYYCAAWDDSLSGRGVFGGGTQLTVL
notes: also called 2437_02_G07; G07
Affinity Ranking ELISA (5 nM) signal [1]: 14800 | binding result [7]: binds | Affinity Ranking ELISA (50 nM) signal [2]: 89600 | Binding ELISA signal [3]: 23600 | Binding ELISA signal [4]: 37500 | Kd [5]: 1330 nM

B5: scFv B08 (scFv)
scFv: EVQLVQSGAEVKKPGSSVKVSCKASGGTFSSYAISWVRQAPGQGLEWMGGIIPIFGTANYAQKFQGRVTITADKSTSTAYMELSSLRSEDTAVYYCARGHYYYMDVWGQGTTVTVSSGGGGSGGGGSGGGASDIVMTQSPATLSVSPGEGATLSCRASQSVSSNLAWYQQKPGRAPRLLIYGASTRATGIPARFSGSGSGTEFTLTISSLQSEDFAVYYCQQYNNWPSFGGGTKLEIK
notes: also called 2436_02_F11
Binding ELISA signal [8]: 61100 | Affinity Ranking ELISA (5 nM) signal [9]: 23300 | Affinity Ranking ELISA (50 nM) signal [10]: 153000

B6: scFv A10 (scFv)
scFv: EVQLVQSGAEVKKPGSSVKVSCKASGGTFSSYAISWVRQAPGQGLEWMGGIIPIFGTANYAQKFQGRVTITADESTSTAYMELSSLRSEDTAVYYCARTRYIWGSYRAYGMDVWGQGTMVTVSSGGGGSGGGGSGGGASDIQMTQSPSSMSASVGDRVTITCRASQSISSHLNWYQQLPGNAPTLLIYYASNLQSGVPSRFSGSGSGTDFTLTISSLQPDDFATYYCQQSISLPYTFGQGTKVEIK
notes: also called 2432_01_D08; D08
Affinity Ranking ELISA (5 nM) signal [1]: 81200 | Affinity Ranking ELISA (50 nM) signal [2]: 243000 | Binding ELISA signal [3]: 37200 | Binding ELISA signal [4]: 55400 | Kd [5]: 48 nM | binding result [6]: binds

B7: scFv A08 (scFv)
scFv: EVQLLESGGGLVQPGGSLRLSCAASGFTFSSYWMSWVRQAPGKGLEWVANIKQDGSEKYYVDSVKGRFTISRDNAKNSLYLQMNSLRAEDTAVYYCAKAPWYSSSPTPYGMDVWGQGTLVTVSSGGGGSGGGGSGGGASDIQMTQSPSSLSASVGDRVTITCQASQDISNYLNWYQQKPGKAPRRLIYGASTLMSGVPSRFSGSGSGTDFTLTISSLQPEDFATYYCQQSYSTPLTFGGGTKVEIK
notes: also called 2432_01_D05
Binding ELISA signal [8]: 58100 | Affinity Ranking ELISA (5 nM) signal [9]: 8700 | Affinity Ranking ELISA (50 nM) signal [10]: 54800

B8: scFv A01 (scFv)
scFv: QVQLVQSGAEVKKPGASVKVSCKASGYTFTSYYMHWVRQAPGQGLEWMGIINPSGGSTSYAQEFQGRVTMTRDTSTSTVYMELSSLRSEDTAVYYCARDGQWLQFDYWGQGTLVTVSSGGGGSGGGGSGGGASDIVMTQSPLSLPVTLGQPASISCRSSQSLLKKSDGNTYLSWYHQRPGQSPRRLIYKVSNRDSGVPDRFSGSGSDTDFTLKISRVETEDVGIYYCMQGSHWPPTFGQGTKVEIK
notes: also called 2426_01_A02
Binding ELISA signal [8]: 30200 | Affinity Ranking ELISA (5 nM) signal [9]: 13800 | Binding ELISA signal [3]: 28100 | Affinity Ranking ELISA (50 nM) signal [10]: 104000

Source: patent US20240115706A1 (LG CHEM, published 2024)
